Measured values as given in patent US20220064322A1 (JACOBIO PHARMACEUTICALS, published 2022).
Where two headings read alike, the source gives them in different places.

T1: cynomolgus CD73 on the cell surface (293T/17-cynoCD73 cells) (cynomolgus (Macaca fascicularis), UniProt P21589 27-547 (human entry))
T1 construct: it is an ecto-domain with a His tag
T1 chain: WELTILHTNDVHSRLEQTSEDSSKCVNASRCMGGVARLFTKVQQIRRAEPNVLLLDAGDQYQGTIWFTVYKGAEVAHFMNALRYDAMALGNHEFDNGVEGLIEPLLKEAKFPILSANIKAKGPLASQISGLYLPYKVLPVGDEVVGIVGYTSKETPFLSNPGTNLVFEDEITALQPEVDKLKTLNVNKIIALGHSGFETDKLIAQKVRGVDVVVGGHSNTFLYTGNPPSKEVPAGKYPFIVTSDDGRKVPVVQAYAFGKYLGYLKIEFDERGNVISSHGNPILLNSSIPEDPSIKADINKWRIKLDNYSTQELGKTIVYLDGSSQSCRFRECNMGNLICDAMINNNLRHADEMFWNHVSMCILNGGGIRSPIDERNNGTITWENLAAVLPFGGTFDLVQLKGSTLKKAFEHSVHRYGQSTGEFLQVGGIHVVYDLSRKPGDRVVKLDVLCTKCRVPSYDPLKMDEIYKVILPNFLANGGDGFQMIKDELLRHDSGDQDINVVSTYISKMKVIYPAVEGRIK

T2: human CD73 ecto-domain recombinant protein (huCD73) (human, UniProt P21589 27-547)
T2 construct: also called soluble huCD73; soluble recombinant CD73
T2 sequence: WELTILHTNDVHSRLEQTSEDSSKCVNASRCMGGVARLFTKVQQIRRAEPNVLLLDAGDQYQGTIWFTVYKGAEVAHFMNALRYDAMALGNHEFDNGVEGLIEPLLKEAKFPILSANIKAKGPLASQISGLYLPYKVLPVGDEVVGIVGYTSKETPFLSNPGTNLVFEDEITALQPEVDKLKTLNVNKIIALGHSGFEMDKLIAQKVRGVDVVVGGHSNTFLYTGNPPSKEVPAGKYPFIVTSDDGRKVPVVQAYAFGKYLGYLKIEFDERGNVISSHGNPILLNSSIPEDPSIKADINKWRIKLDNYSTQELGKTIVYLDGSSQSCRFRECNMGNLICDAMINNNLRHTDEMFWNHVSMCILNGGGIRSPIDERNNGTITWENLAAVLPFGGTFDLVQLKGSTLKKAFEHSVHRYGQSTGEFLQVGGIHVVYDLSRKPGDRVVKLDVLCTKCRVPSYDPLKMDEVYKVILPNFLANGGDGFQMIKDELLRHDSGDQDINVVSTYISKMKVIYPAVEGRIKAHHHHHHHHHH

B1: JB24Chi (antibody, human IgG1, kappa, V domains shown)
VH: QVQLQQSGLELVKPGASVKMSCKASGYTFTDYNMHWVKQSHGKSLEWIGYIKPHNGGTTYNPKFEGKATLTVNKSSSTAYMELRSLTSEDSAVYYCVRCDFLYWYFDVWGTGTTVTVSS
VL: DIVMTQSPAIMSASLGERVTMTCTASSSVSSSYLHWYQQKPGSSPKLWIYSTSNLASGVPGRFSGSGSGTSYSLTISSMEAEDAATYYCHQYHRSPLTFGAGTKLEMKR
notes: Phage antibody, chimeric human IgG1 / human kappa full chains
B2: JB24H2L1 (antibody, human IgG1, kappa, V domains shown)
VH: QVQLVQSGAEVKKPGASVKMSCKASGYTFTDYNMHWVRQSPGKSLEWIGYIKPHNAGTTYNPKFEGRATLTVDTSASTAYMELSSLRSEDTAVYYCVRSDFLYWYFDVWGQGTTVTVSS
VL: DIQMTQSPSSLSASVGDRVTITCTASSSVSSSYLHWYQQKPGKAPKLLIYSTSNLASGVPSRFSGSGSGTDFTLTISSLQPEDFATYYCHQYHRSPLTFGAGTKLEIKR
notes: Humanized antibody of JB24Chi, human IgG1 / kappa
B3: JB94H1L3 (antibody, human IgG1, kappa)
heavy: not shown
light: DIQMTQSPSSLSASVGDRVTITCKASQDINTYLSWFQQKPGKSPKSLIYRSNILVDGVPSRFSGSGSGQDYTLTISSLQPEDFAIYYCLQYDDFPYTFGQGTKLEIKRTVAAPSVFIFPPSDEQLKSGTASVVCLLNNFYPREAKVQWKVDNALQSGNSQESVTEQDSKDSTYSLSSTLTLSKADYEKHKVYACEVTHQGLSSPVTKSFNRGEC
notes: Humanized antibody of the 94 clone, human IgG1 / kappa

Tests used:
[1] = biological target: T1, cynomolgus CD73 on the cell surface …; test: flow cytometry on 293T/17-Cyno CD73 cells, curve fit
Protocol: (§1) 2×10⁶ cells resuspended in PBS buffer were distributed into 96-well plates and incubated with gradient diluted humanized antibodies for 1 h at refrigerator 4° C. or on ice, then the cells was centrifuged for 3 min 1500 rpm at 4° C. and washed three times by PBS, and diluted APC-labeled goat anti-human polyclonal antibody (Biolegend) were incubated for 30 min at refrigerator 4° C. Finally, the cells were washed three times with PBS as described above and analyzed on MACSQuant flow cytometer. GraphPad Prism software was used to generate data graphs and statistical affinity data.
(§2) The samples to be tested were incubated for 1 h at 4° C. after gradient dilution. After washing, 100 μL of APC-labeled secondary antibody was added to each well and incubated for 30 min. After washing, detecting on machine and the fluorescence value was read. GraphPad Prism software was used to generate data graphs and statistical affinity data.

[2] = biological target: T1, cynomolgus CD73 on the cell surface …; test: cell-based or functional assay
[3] = biological target: T2, human CD73 ecto-domain recombinant …; test: indirect ELISA, plate coated with 1 ug/ml huCD73 recombinant protein, HRP-labelled secondary antibody, RFU
Protocol: (§3) Incubated with gradient diluted 100 μL/well of antibodies for 1 h at room temperature. After the plates were washed 3 times with 200 ul/well of PBST, 100 ul of diluted HRP-labeled secondary antibody at a ratio of 1:5000 was added to each well, and the plates were incubated for 1 hour at room temperature. The plates were washed 3 times with 200 ul/well of PBST, 100 ul of TMB was added to each well and reacted for 5 minutes at room temperature in the dark. […] read the OD value. The affinity of humanized antibodies and parent antibodies were similar to the antigen (table 9).

[4] = biological target: T1, cynomolgus CD73 on the cell surface …; test: cell-based or functional assay
[5] = biological target: T1, cynomolgus CD73 on the cell surface …; test: flow cytometry on 293T/17-Cyno CD73 cells
Protocol: as §1, §2

[6] = biological target: T2, human CD73 ecto-domain recombinant …; test: indirect ELISA, coated huCD73 recombinant protein
Protocol: as §3

[7] = biological target: T2, human CD73 ecto-domain recombinant …; test: cell-based or functional assay
[8] = biological target: T2, human CD73 ecto-domain recombinant …; test: indirect ELISA, coated soluble huCD73, curve fit
Protocol: (§4) The indirect ELISA method was applied to evaluate the binding ability of each positive clone to soluble huCD73 protein. Soluble huCD73 was coated, and gradient diluted samples were incubated, then HPR-labeled secondary antibody was added, finally TMB was added to develop the color, and OD450 was read after termination.
(§5) 1 ug/ml of recombinant CD73 protein was coated on ELISA plates (Coning), incubate overnight at 4° C. The next day, wash 5 times in PBS and blocked with 200 ul/well 2% skimmed milk, a certain dose range of CD73 antibodies were incubated for 1 h at room temperature. Wash 5 times with PBST washing buffer (PBS, 0.05% Tween 20), add HRP-conjugated goat anti-mouse IgG (H+L) (Promega) and incubate at room temperature for 1 h to detect bound anti-CD73 antibodies; wash the plate 5 times again and add TMB (Life Technologies) for color development for 5 to 10 min; finally the reaction was stopped by adding 1N HCl, and the OD value was measured at 450 nm. GraphPad Prism software was used to generate data graphs and statistical affinity data.

[9] = biological target: T2, human CD73 ecto-domain recombinant …; test: indirect ELISA, coated soluble huCD73, HRP-labelled secondary antibody, OD450
Protocol: as §4, §5

[10] = biological target: T2, human CD73 ecto-domain recombinant …; test: indirect ELISA, coated soluble huCD73
Protocol: as §4, §5

[11] = biological target: T2, human CD73 ecto-domain recombinant …; test: indirect ELISA, coated huCD73 recombinant protein, curve fit
Protocol: as §3

[12] = biological target: T1, cynomolgus CD73 on the cell surface …; test: flow cytometry on 293T/17 cells expressing cynoCD73, APC-labelled goat anti-human antibody, MFI
Protocol: as §1, §2

Binder	Bottom [1]	Top [1]	IC50, blockade of 5'exonuclease activity on 293T/17-Cyno CD73 cells [2]	EC50 (read off the curve) [3]	IC50, blockade of 5'exonuclease activity on 293T/17-Cyno CD73 cells [4]	EC50 [5]	EC50 [6]	Bottom (lower plateau of the fitted curve), blockade of soluble huCD73 enzyme activity (AMP hydrolysis, luciferase/CellTiter-Glo) [7]	IC50, blockade of soluble huCD73 enzyme activity (AMP hydrolysis, luciferase/CellTiter-Glo) [7]	Top (upper plateau of the fitted curve), blockade of soluble huCD73 enzyme activity (AMP hydrolysis, luciferase/CellTiter-Glo) [7]	Bottom [8]	Top [8]	EC50 (read off the curve) [9]	EC50 [10]	Bottom [11]	Top [11]	EC50 (read off the curve) [12]
B1	0.709 fluorescence	68.5 fluorescence	84 pM	~0.1 µg/mL	5 pM	6380 pM	27.3 pM	14.7	401 pM	102	0.136 OD450	3.09 OD450	~40 pM	39 pM	128 OD value	6600 OD value	
B2	1.4 fluorescence	36.5 fluorescence		~0.2 µg/mL	79 pM	1890 pM	24.8 pM								191 OD value	6290 OD value	~2000 pM
B3	1.51 fluorescence	78.7 fluorescence		~0.03 µg/mL	17 pM	5420 pM	28.9 pM								48.7 OD value	8290 OD value	~5000 pM
